Columns and labels:
[1] = target: SARS-CoV-2 RBD-SD1 (Wu), S residues 319 to 591 (SARS-CoV-2 Wuhan-Hu-1, UniProt P0DTC2); experiment: ELISA
[2] = target: SARS-CoV-2 Spike S1-His Tag (HPLC-verified), NR-53798 (SARS-CoV-2 Wuhan-Hu-1, UniProt P0DTC2); experiment: ELISA

B1: 3548-RBD-15 (antibody, V domains shown)
VH: QVQLQESGPGLVKPSETLSLTCTVSGGSVSSYYWSWIRQPPGKGLEWIGYIYYSGSTNYNPSLKSRVTISVDTSKNQFSLKLSSVTAADTAVYYCAKGIYSSSSYWGDPWGQGTLVTVSS
VL: not shown
- binding result [1]: binds
- binding result [2]: binds

B2: 3548-S-2 (antibody, V domains shown)
VH: QVQLVESGPGLVKPSQTLSLTCTVSGGSISSGGYYWSWIRQHPGRGLERIGYIYYSGSTYYNPSLKSRVTISVDTSKDQFSLKLTSVTAADSAVYYCARGSRNDLRDFDYWGQGTLVTVSS
VL: QSVMTQPPSVSGAPGQRVTISCSGSSSNIGNNYVSWYQQLPGTAPKLLIYGNSNRSSRVPDRFSGSKSGTSASLAITGLQAEDEADYYCQSYNSSLSGLVVFGGGTQLTAL
- binding result [1]: binds
